Experimental data published in patent EP4745153A1, “GLP-1, GIP AND GCG RECEPTOR […] USE THEREOF” (Jiangsu Hengrui Pharmaceuticals Co., Ltd., priority 2023, dated 2025).
Like-named read-outs stand apart in the source and are kept apart here. Starred links: 1 amine or outer side, 2 acyl side, 3 side chain; linkers in the order of their positions; H or OH if unused. Non-standard residues stand in square brackets, D forms with d. Residues, ends and D or L forms follow the SMILES beside them. Groups on a side chain read outwards from the residue. No end group written: not given here. *: point of attachment. C20 diacid = O=C(O)CCCCCCCCCCCCCCCCCCC(=O)*; γGlu = O=C(O)[C@H](CCC(=O)[*:2])N[*:1]; αMeL = CC(C)C[C@](C)(N)C(=O)O; αMeK = C[C@](N)(CCCCN)C(=O)O; αMeS = C[C@](N)(CO)C(=O)O; AEEA = NCCOCCOCC(=O)O; αS = not defined here; Aib = CC(C)(N)C(=O)O

Experiments:
[1] = Physical stability of solution in the vehicle; assay type: physicochemical; conditions: incubation at 25 degrees Celsius for 28 days; stated in the description, no method given
[2] = molecular target: T1, human glucagon-like peptide-1 receptor (human, UniProt P43220 24-463); experiment: cell-based or functional assay
Target sequence in this assay (P43220 24-463): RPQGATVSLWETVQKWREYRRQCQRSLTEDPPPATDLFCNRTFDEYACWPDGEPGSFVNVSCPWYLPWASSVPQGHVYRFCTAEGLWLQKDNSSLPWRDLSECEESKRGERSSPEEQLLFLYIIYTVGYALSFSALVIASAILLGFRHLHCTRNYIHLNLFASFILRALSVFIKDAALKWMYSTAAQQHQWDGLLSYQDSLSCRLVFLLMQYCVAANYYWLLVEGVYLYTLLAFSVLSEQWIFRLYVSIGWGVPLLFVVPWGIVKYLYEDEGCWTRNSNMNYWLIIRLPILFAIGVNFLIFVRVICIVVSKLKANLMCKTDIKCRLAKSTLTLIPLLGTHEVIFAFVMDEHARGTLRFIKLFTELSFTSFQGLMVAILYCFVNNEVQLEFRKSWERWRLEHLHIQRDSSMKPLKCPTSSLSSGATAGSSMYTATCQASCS

[3] = molecular target: human glucose-dependent insulinotropic polypeptide receptor (human) (UniProt P48546); experiment: cell-based or functional assay
human glucagon receptor [4] = molecular target: T2, human glucagon receptor (human, UniProt P47871 26-477); experiment: cell-based or functional assay
human GIPR = molecular target: T3, human GIPR (Homo sapiens, UniProt P48546); experiment: cAMP HTRF agonist activity assay in CHO-K1 cells expressing GIPR; assay type: cell-based
T3 construct: expressed in transfected cells; host or cells: CHO-K1 clonal cell line
T3 sequence (P48546 22-466): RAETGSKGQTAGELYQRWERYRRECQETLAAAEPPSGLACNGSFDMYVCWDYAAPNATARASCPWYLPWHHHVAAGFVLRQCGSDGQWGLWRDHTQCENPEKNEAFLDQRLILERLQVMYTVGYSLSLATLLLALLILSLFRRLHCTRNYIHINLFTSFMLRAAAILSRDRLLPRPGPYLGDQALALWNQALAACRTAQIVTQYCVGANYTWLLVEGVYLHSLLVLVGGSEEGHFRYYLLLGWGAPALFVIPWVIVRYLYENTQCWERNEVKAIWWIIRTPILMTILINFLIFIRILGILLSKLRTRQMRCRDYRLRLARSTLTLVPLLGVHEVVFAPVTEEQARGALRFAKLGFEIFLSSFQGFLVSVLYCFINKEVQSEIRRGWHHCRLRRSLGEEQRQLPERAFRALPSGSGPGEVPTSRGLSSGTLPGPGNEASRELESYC
How it was run: (§1)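 cAMP accumulation measured by competitive HTRF after 30 min incubation of polypeptides with 5000 receptor-expressing CHO-K1 cells/well at 37°C. Percent of maximal response versus concentration fitted to a four-parameter logistic to give relative EC50.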

[5] = In vivo efficacy in diet-induced obesity (DIO) mouse model; parameters: species or system C57BL/6J mice; conditions: 10 nmol/kg subcutaneous once daily for 24 days, indicating good safety
Description: In this example, a DIO mouse model established by high-fat diet induction was used to evaluate the effects on and improvement of obesity and diabetes-related indicators in DIO mice after subcutaneous injection of some of the compounds in the present disclosure.
4.1 Experimental methods: Obese male C57BL/6J mice (23-24 weeks old, obtained from Beijing Vital River Laboratory Animal Technology Co., Ltd.) induced by a high-fat diet were purchased. Six-week-old male C57BL/6J mice were fed a 60% high-fat diet (RD D12492) until their body weight reached 45-50g to obtain DIO model mice. After arriving at the facility and undergoing a week of acclimatization feeding, the animals were randomly divided into groups according to their body weight and administered vehicle (model group), LY3437943, Compound 15, Compound 16, Compound 17 and Compound 18 via subcutaneous injection in the neck. The compound was administered at a dose of 10 nmol/kg, and the frequency of administration was once daily via subcutaneous injection for 24 days. Each group contained 5 DIO mice. According to the experimental design, the body weight of each mouse was weighed and recorded daily at 3 pm or before administration, the average body weight of each group of mice was calculated, and a curve of body weight change over time was plotted. After the experiment, the fat and other organs of the mice were removed from various parts of the body, weighed, and recorded.

human GLP-1R = molecular target: T4, human GLP-1R (Homo sapiens, UniProt P43220); experiment: cAMP HTRF agonist activity assay in CHO-K1 cells expressing GLP-1R; assay type: cell-based
T4 construct: expressed in transfected cells; host or cells: CHO-K1 clonal cell line
How it was run: as §1

[6] = Solubility in the vehicle; assay type: physicochemical; conditions: stated in the summary only, no test example
[7] = Pharmacokinetics in mice after single intravenous injection; parameters: species or system C57 mice; conditions: mouse, in vivo, male C57 mice, single intravenous dose 200 nmol/kg, plasma
How it was run: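 Plasma concentrations were measured by positive-mode ESI LC-MS/MRM, with verapamil as internal standard, at time points from 5 min to 72 h. Samples came from three male C57 mice per compound, aged 4-6 weeks, dosed once intravenously with 200 nmol/kg in 1×PBS; PK parameters were derived with PKSolver.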

[8] = molecular target: T1, human glucagon-like peptide-1 receptor; experiment: cell-based or functional assay; remark: listed apart in the source
[9] = molecular target: T5, human glucose-dependent insulinotropic polypeptide receptor (human, UniProt P48546 22-466); experiment: cell-based or functional assay
T5 sequence (looked up): T3 sequence (P48546 22-466)

human glucagon receptor [10] = molecular target: T2, human glucagon receptor; experiment: cell-based or functional assay; remark: listed apart in the source

T2 sequence (P47871 26-477): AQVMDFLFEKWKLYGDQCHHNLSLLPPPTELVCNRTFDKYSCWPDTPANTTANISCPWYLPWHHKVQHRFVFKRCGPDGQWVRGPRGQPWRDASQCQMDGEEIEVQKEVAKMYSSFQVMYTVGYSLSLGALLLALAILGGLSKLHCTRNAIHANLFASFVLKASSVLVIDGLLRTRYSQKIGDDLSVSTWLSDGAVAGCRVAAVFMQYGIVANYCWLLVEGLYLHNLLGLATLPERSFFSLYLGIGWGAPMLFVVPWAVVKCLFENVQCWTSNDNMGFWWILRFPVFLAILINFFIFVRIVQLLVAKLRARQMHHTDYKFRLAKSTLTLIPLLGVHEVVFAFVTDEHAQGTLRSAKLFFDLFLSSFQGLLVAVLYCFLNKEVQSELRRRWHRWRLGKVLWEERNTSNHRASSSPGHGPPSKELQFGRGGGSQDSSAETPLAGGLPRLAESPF
T4 sequence (P43220 24-463): as the sequence (P43220 24-463) above

H-Aib-HGTFTSDYS-αK-LLE-K(-OEG-OEG-γGlu-C(O)-(CH2)18-COOH)-KAA-αS-EFVEWLIEGGPSSGAPPPS-NH2 (H[Aib]HGTFTSDYS[αMeK]LLEK([AEEA-AEEA-γGlu-C20 diacid])KAA[αS]EFVEWLIEGGPSSGAPPPS-NH2; reading uncertain; also: printed as H-Aib-HGTFTSDYS-αK-LLE-K(-OEG-OEG-γGlu-C(O)-(CH2)18-COOH)-KAA-αS-EFVEWLIEGGPSSGAPPPS-NH2) [Compound 0126]
appearance of the solution in the vehicle [1]: remains clear and transparent

H-Aib-HGTFTSDYSI-αL-LE-K(-OEG-OEG-γGlu-C(O)-(CH2)18-COOH)-KAAQEFVEWLLAGGPSSGAPPPS-NH2 (H[Aib]HGTFTSDYSI[αMeL]LEK([AEEA-AEEA-γGlu-C20 diacid])KAAQEFVEWLLAGGPSSGAPPPS-NH2; N-terminus assumed; SMILES CC[C@H](C)[C@H](NC(=O)[C@H](CO)NC(=O)[C@H](Cc1ccc(O)cc1)NC(=O)[C@H](CC(=O)O)NC(=O)[C@H](CO)NC(=O)[C@@H](NC(=O)[C@H](Cc1ccccc1)NC(=O)[C@@H](NC(=O)CNC(=O)[C@H](Cc1c[nH]cn1)NC(=O)C(C)(C)NC(=O)[C@@H](N)Cc1c[nH]cn1)[C@@H](C)O)[C@@H](C)O)C(=O)N[C@@](C)(CC(C)C)C(=O)N[C@@H](CC(C)C)C(=O)N[C@@H](CCC(=O)O)C(=O)N[C@@H](CCCCNC(=O)COCCOCCNC(=O)COCCOCCNC(=O)CC[C@H](NC(=O)CCCCCCCCCCCCCCCCCCC(=O)O)C(=O)O)C(=O)N[C@@H](CCCCN)C(=O)N[C@@H](C)C(=O)N[C@@H](C)C(=O)N[C@@H](CCC(N)=O)C(=O)N[C@@H](CCC(=O)O)C(=O)N[C@@H](Cc1ccccc1)C(=O)N[C@H](C(=O)N[C@@H](CCC(=O)O)C(=O)N[C@@H](Cc1c[nH]c2ccccc12)C(=O)N[C@@H](CC(C)C)C(=O)N[C@@H](CC(C)C)C(=O)N[C@@H](C)C(=O)NCC(=O)NCC(=O)N1CCC[C@H]1C(=O)N[C@@H](CO)C(=O)N[C@@H](CO)C(=O)NCC(=O)N[C@@H](C)C(=O)N1CCC[C@H]1C(=O)N1CCC[C@H]1C(=O)N1CCC[C@H]1C(=O)N[C@@H](CO)C(N)=O)C(C)C) [Compound 0125]
appearance of the solution in the vehicle [1]: remains clear and transparent

LY3437943 (peptide)
Activity against human GLP-1R (EC50 nM) [2]: 0.08 nM | Activity against human GIPR (EC50 nM) [3]: 0.002 nM | Activity against human GCGR (EC50 nM) (human glucagon receptor [4]): 0.412 nM

CC[C@H](C)[C@H](NC(=O)[C@H](CO)NC(=O)[C@H](Cc1ccc(O)cc1)NC(=O)[C@H](CC(=O)O)NC(=O)[C@H](CO)NC(=O)[C@@H](NC(=O)[C@H](Cc1ccccc1)NC(=O)[C@@H](NC(=O)CNC(=O)[C@H](Cc1c[nH]cn1)NC(=O)C(C)(C)NC(=O)[C@@H](N)Cc1c[nH]cn1)[C@@H](C)O)[C@@H](C)O)C(=O)N[C@@](C)(CC(C)C)C(=O)N[C@@H](CC(C)C)C(=O)N[C@@H](CCC(=O)O)C(=O)N[C@@H](CCCCNC(=O)COCCOCCNC(=O)COCCOCCNC(=O)CC[C@H](NC(=O)CCCCCCCCCCCCCCCCCCC(=O)O)C(=O)O)C(=O)N[C@@H](CCCCN)C(=O)N[C@@H](C)C(=O)N[C@@H](C)C(=O)N[C@@H](CCC(N)=O)C(=O)N[C@@H](CCC(=O)O)C(=O)N[C@@H](Cc1ccccc1)C(=O)N[C@H](C(=O)N[C@@H](CCC(=O)O)C(=O)N[C@@H](Cc1c[nH]c2ccccc12)C(=O)N[C@@H](CC(C)C)C(=O)N[C@@H](CC(C)C)C(=O)N[C@@H](C)C(=O)NCC(=O)NCC(=O)N1CCC[C@H]1C(=O)N[C@@H](CO)C(=O)N[C@@H](CO)C(=O)NCC(=O)N[C@@H](C)C(=O)N1CCC[C@H]1C(=O)N1CCC[C@H]1C(=O)N1CCC[C@H]1C(=O)N[C@@H](CO)C(N)=O)C(C)C [Compound 0125] (H-H[Aib]HGTFTSDYSI[αMeL]LEK([AEEA-AEEA-γGlu-C20 diacid])KAAQEFVEWLLAGGPSSGAPPPS-NH2)
EC50 (human GIPR): 2 pM | final body weight relative to body weight of mice on a normal diet (Chow) [5]: ≥ 80% | EC50 (human GLP-1R): 32 pM | solubility in the vehicle [6]: ≥ 20 mg/mL | AUC(0-inf) [7]: 96.1 µM·h | C0 [7]: 5.79 µM | clearance ([7]; read-out: CLp): 2.1 mL/h/kg | half-life ([7]; read-out: T1/2 (converted)): 14.6 h

B1: Compound No. 0126 (peptide)
peptide: H[Aib]HGTFTSDYS[αMeK]LLEK([AEEA-AEEA-γGlu-C20 diacid])KAA[αMeS]EFVEWLIEGGPSSGAPPPS-NH2
modifications: N-terminus assumed
SMILES: CC[C@H](C)[C@H](NC(=O)[C@H](CC(C)C)NC(=O)[C@H](Cc1c[nH]c2ccccc12)NC(=O)[C@H](CCC(=O)O)NC(=O)[C@@H](NC(=O)[C@H](Cc1ccccc1)NC(=O)[C@H](CCC(=O)O)NC(=O)[C@](C)(CO)NC(=O)[C@H](C)NC(=O)[C@H](C)NC(=O)[C@H](CCCCN)NC(=O)[C@H](CCCCNC(=O)COCCOCCNC(=O)COCCOCCNC(=O)CC[C@H](NC(=O)CCCCCCCCCCCCCCCCCCC(=O)O)C(=O)O)NC(=O)[C@H](CCC(=O)O)NC(=O)[C@H](CC(C)C)NC(=O)[C@H](CC(C)C)NC(=O)[C@](C)(CCCCN)NC(=O)[C@H](CO)NC(=O)[C@H](Cc1ccc(O)cc1)NC(=O)[C@H](CC(=O)O)NC(=O)[C@H](CO)NC(=O)[C@@H](NC(=O)[C@H](Cc1ccccc1)NC(=O)[C@@H](NC(=O)CNC(=O)[C@H](Cc1c[nH]cn1)NC(=O)C(C)(C)NC(=O)[C@@H](N)Cc1c[nH]cn1)[C@@H](C)O)[C@@H](C)O)C(C)C)C(=O)N[C@@H](CCC(=O)O)C(=O)NCC(=O)NCC(=O)N1CCC[C@H]1C(=O)N[C@@H](CO)C(=O)N[C@@H](CO)C(=O)NCC(=O)N[C@@H](C)C(=O)N1CCC[C@H]1C(=O)N1CCC[C@H]1C(=O)N1CCC[C@H]1C(=O)N[C@@H](CO)C(N)=O
Activity against human GLP-1R (EC50 nM) [8]: 0.008 nM | Activity against human GIPR (EC50 nM) [9]: 0.002 nM | Activity against human GCGR (EC50 nM) (human glucagon receptor [10]): 0.008 nM
